The record followed here is patent US20150361464A1, “METHODS, REAGENTS AND CELLS FOR BIOSYNTHESIZING COMPOUNDS” (INVISTA North America S.á r.l., priority 2014, published 2015).

Experiment [1] in a line: ω-transaminase enzyme activity assay, reverse direction (5-aminopentanoate to glutarate semialdehyde), cell free extract. The following applies: 10 mM 5-aminopentanoate, 10 mM pyruvate, pH 7.5, 25° C., 4 hours; against the empty vector control; FIG. 15. The experiment is classed as biochemical. Here is the method:
(§1) A nucleotide sequence encoding an N-terminal His-tag was added to the genes from Chromobacterium violaceum and Rhodobacter sphaeroides encoding the ω-transaminases of SEQ ID NOs: 8 and 10 respectively (see FIG. 10) such that N-terminal HIS tagged ω-transaminases could be produced. Each of the resulting modified genes was cloned into a pET21a expression vector under control of the T7 promoter and each expression vector was transformed into a BL21[DE3] E. coli host. The resulting recombinant E. coli strains were cultivated at 37° C. in a 250 mL shake flask culture containing 50 mL LB media and antibiotic selection pressure, with shaking at 230 rpm. Each culture was induced overnight at 16° C. using 1 mM IPTG.
(§2) The pellet from each induced shake flask culture was harvested via centrifugation. Each pellet was resuspended and lysed via sonication. The cell debris was separated from the supernatant via centrifugation and the cell free extract was used immediately in enzyme activity assays.
Enzyme activity assays in the reverse direction (i.e., 5-aminopentanoate to glutarate semialdehyde) were performed in a buffer composed of a final concentration of 50 mM HEPES buffer (pH=7.5), 10 mM 5-aminopentanoate, 10 mM pyruvate and 100 μM pyridoxyl 5′ phosphate. […] The formation of L-alanine from pyruvate was quantified via RP-HPLC.

A short description of experiment [2]: ω-transaminase enzyme activity assay, forward direction (glutarate semialdehyde to 5-aminopentanoate), cell free extract. The experiment is classed as biochemical. The following applies: conclusion from reverse and forward direction assays. The protocol:
as §1, §2
Enzyme activity in the forward direction (i.e., glutarate semialdehyde to 5-aminopentanoate) was confirmed for the transaminase of SEQ ID NO: 10. Enzyme activity assays were performed in a buffer composed of a final concentration of 50 mM HEPES buffer (pH=7.5), 10 mM glutarate semialdehyde, 10 mM L-alanine and 100 μM pyridoxyl 5′ phosphate. Each enzyme activity assay reaction was initiated by adding a cell free extract of the ω-transaminase gene product or the empty vector control to the assay buffer containing the glutarate semialdehyde and incubated at 25° C. for 4 hours, with shaking at 250 rpm. The formation of pyruvate was quantified via RP-HPLC.

B1: SEQ ID NO: 8: Chromobacterium violaceum ω-transaminase, N-terminal HIS tagged, cell free extract (protein, listed as Chromobacterium violaceum)
chain: MQKQRTTSQWRELDAAHHLHPFTDTASLNQAGARVMTRGEGVYLWDSEGNKIIDGMAGLWCVNVGYGRKDFAEAARRQMEELPFYNTFFKTTHPAVVELSSLLAEVTPAGFDRVFYTNSGSESVDTMIRMVRRYWDVQGKPEKKTLIGRWNGYHGSTIGGASLGGMKYMHEQGDLPIPGMAHIEQPWWYKHGKDMTPDEFGVVAARWLEEKILEIGADKVAAFVGEPIQGAGGVIVPPATYWPEIERICRKYDVLLVADEVICGFGRTGEWFGHQHFGFQPDLFTAAKGLSSGYLPIGAVFVGKRVAEGLIAGGDFNHGFTYSGHPVCAAVAHANVAALRDEGIVQRVKDDIGPYMQKRWRETFSRFEHVDDVRGVGMVQAFTLVKNKAKRELFPDFGEIGTLCRDIFFRNNLIMRACGDHIVSAPPLVMTRAEVDEMLAVAERCLEEFEQTLKARGLA
modifications: N-terminal His tag
notes: Chromobacterium violaceum ω-transaminase, N-terminal HIS tagged, cell free extract
In the case of B1, the “acceptance of 5-aminopentanoate as substrate (formation of L-alanine from pyruvate, RP-HPLC)” value in experiment [1] was “accepted 5-aminopentanoate as substrate”. Further, the “acceptance of glutarate semialdehyde as substrate and synthesis of 5-aminopentanoate, concluded from reversibility of the ω-transaminase activity” value in experiment [2] is “accepted glutarate semialdehyde as substrate and synthesized 5-aminopentanoate”.
